Assay results: publication PMC7910549

Target: GFP-tagged CSB (UniProt Q03468)
Test: affinity purification with mass spectrometry; label-free quantification and iBAQ; GFP-CSB pulled down with GFP Trap beads from U2OS CSB-KO cells; untreated against 20 J/m^2 UV-C with 1 h recovery

Sequence of UniProt Q03468 (Q03468 whole entry): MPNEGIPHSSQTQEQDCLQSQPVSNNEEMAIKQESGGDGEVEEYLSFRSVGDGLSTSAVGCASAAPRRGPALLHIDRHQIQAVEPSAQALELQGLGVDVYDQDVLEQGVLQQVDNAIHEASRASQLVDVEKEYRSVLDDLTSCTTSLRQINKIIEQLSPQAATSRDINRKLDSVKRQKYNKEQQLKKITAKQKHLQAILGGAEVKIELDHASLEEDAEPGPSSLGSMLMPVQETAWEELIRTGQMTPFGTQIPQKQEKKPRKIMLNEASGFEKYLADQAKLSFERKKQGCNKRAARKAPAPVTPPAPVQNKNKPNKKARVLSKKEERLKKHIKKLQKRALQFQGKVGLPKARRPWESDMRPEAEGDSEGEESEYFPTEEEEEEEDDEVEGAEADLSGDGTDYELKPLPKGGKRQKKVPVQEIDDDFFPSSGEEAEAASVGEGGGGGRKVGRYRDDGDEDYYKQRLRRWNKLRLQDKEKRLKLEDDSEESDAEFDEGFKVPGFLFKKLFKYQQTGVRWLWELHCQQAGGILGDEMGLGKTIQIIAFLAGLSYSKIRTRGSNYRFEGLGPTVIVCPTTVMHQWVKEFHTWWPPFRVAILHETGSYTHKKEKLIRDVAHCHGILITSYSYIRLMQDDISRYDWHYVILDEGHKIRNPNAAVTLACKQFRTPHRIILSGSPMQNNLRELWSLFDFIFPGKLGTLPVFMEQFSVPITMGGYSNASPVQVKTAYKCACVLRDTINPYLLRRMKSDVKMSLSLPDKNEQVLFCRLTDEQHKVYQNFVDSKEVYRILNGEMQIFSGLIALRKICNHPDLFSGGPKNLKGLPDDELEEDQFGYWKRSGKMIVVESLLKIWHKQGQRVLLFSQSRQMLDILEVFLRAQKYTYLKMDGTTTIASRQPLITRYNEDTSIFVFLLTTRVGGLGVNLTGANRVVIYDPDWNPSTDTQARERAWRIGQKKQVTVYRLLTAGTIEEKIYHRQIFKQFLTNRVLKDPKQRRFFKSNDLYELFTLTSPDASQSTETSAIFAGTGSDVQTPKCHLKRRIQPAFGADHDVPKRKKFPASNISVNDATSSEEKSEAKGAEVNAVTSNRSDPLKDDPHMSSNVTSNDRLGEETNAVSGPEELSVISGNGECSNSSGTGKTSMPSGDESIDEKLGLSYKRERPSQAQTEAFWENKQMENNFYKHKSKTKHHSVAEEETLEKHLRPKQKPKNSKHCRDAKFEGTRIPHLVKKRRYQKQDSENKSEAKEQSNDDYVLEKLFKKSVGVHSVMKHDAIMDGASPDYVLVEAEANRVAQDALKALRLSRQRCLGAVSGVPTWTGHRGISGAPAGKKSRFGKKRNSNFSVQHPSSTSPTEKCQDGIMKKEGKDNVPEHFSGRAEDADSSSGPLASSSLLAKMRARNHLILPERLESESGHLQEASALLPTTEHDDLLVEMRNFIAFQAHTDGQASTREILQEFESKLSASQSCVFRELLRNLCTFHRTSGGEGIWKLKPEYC

- percent of the isolated CSB molecules associated (iBAQ): > 60%
Substance: RNA polymerase II (RNAPII), endogenous (from UniProt P24928 1-1970) (complex)
